Molecular target: T1, (Ig32)2-(R3^IVVI)-(Ig32)2 polyprotein, talin R3 domain with the IVVI mutation
T1 chain: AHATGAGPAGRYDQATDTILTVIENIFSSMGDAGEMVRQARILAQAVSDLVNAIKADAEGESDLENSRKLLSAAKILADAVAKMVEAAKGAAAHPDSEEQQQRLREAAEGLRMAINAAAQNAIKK
Experiment: magnetic tweezers
Conditions: chain shown with the change; for other: average unbinding time at 40 pN: parent: est. 9 s, read off a plot

B1: full-length human vinculin, wild type, P18206-2 K944A; R945A; D1013A; E1015A; E986A (protein)
chain: MPVFHTRTIESILEPVAQQISHLVIMHEEGEVDGKAIPDLTAPVAAVQAAVSNLVRVGKETVQTTEDQILKRDMPPAFIKVENACTKLVQAAQMLQSDPYSVPARDYLIDGSRGILSGTSDLLLTFDEAEVRKIIRVCKGILEYLTVAEVVETMEDLVTYTKNLGPGMTKMAKMIDERQQELTHQEHRVMLVNSMNTVKELLPVLISAMKIFVTTKNSKNQGIEEALKNRNFTVEKMSAEINEIIRVLQLTSWDEDAWASKDTEAMKRALASIDSKLNQAKGWLRDPSASPGDAGEQAIRQILDEAGKVGELCAGKERREILGTCKMLGQMTDQVADLRARGQGSSPVAMQKAQQVSQGLDVLTAKVENAARKLEAMTNSKQSIAKKIDAAQNWLADPNGGPEGEEQIRGALAEARKIAELCDDPKERDDILRSLGEISALTSKLADLRRQGKGDSPEARALAKQVATALQNLQTKTNRAVANSRPAKAAVHLEGKIEQAQRWIDNPTVDDRGVGQAAIRGLVAEGHRLANVMMGPYRQDLLAKCDRVDQLTAQLADLAARGEGESPQARALASQLQDSLKDLKARMQEAMTQEVSDVFSDTTTPIKLLAVAATAPPDAPNREEVFDERAANFENHSGKLGATAEKAAAVGTANKSTVEGIQASVKTARELTPQVVSAARILLRNPGNQAAYEHFETMKNQWIDNVEKMTGLVDEAIDTKSLLDASEEAIKKDLDKCKVAMANIQPQMLVAGATSIARRANRILLVAKREVENSEDPKFREAVKAASDELSKTISPMVMDAKAVAGNISDPGLQKSFLDSGYRILGAVAKVREAFQPQEPDFPPPPPDLEQLRLTDELAPPKPPLPEGEVPPPRPPPPEEKDEEFPEQKAGEVINQPMMMAARQLHDEARKWSSKGNDIIAAAKRMALLMAEMSRLVRGGSGTAAALIQCAKDIAKASDEVTRLAKEVAKQCTDKRIRTNLLQVCARIPTISTQLKILSTVKATMLGRTNISAEASEQATEMLVHNAQNLMQSVKETVREAEAASIKIRTDAGFTLRWVRKTPWYQ
With B1 the other: unbinding time (tUb) at 40 pN, peak of square-root histogram was 3.4 s and the other: average unbinding time at 40 pN was 18 s.

B2: full-length human vinculin, wild type, P18206-2 K944A; R945A; D1013A; E1015A (protein)
chain: MPVFHTRTIESILEPVAQQISHLVIMHEEGEVDGKAIPDLTAPVAAVQAAVSNLVRVGKETVQTTEDQILKRDMPPAFIKVENACTKLVQAAQMLQSDPYSVPARDYLIDGSRGILSGTSDLLLTFDEAEVRKIIRVCKGILEYLTVAEVVETMEDLVTYTKNLGPGMTKMAKMIDERQQELTHQEHRVMLVNSMNTVKELLPVLISAMKIFVTTKNSKNQGIEEALKNRNFTVEKMSAEINEIIRVLQLTSWDEDAWASKDTEAMKRALASIDSKLNQAKGWLRDPSASPGDAGEQAIRQILDEAGKVGELCAGKERREILGTCKMLGQMTDQVADLRARGQGSSPVAMQKAQQVSQGLDVLTAKVENAARKLEAMTNSKQSIAKKIDAAQNWLADPNGGPEGEEQIRGALAEARKIAELCDDPKERDDILRSLGEISALTSKLADLRRQGKGDSPEARALAKQVATALQNLQTKTNRAVANSRPAKAAVHLEGKIEQAQRWIDNPTVDDRGVGQAAIRGLVAEGHRLANVMMGPYRQDLLAKCDRVDQLTAQLADLAARGEGESPQARALASQLQDSLKDLKARMQEAMTQEVSDVFSDTTTPIKLLAVAATAPPDAPNREEVFDERAANFENHSGKLGATAEKAAAVGTANKSTVEGIQASVKTARELTPQVVSAARILLRNPGNQAAYEHFETMKNQWIDNVEKMTGLVDEAIDTKSLLDASEEAIKKDLDKCKVAMANIQPQMLVAGATSIARRANRILLVAKREVENSEDPKFREAVKAASDELSKTISPMVMDAKAVAGNISDPGLQKSFLDSGYRILGAVAKVREAFQPQEPDFPPPPPDLEQLRLTDELAPPKPPLPEGEVPPPRPPPPEEKDEEFPEQKAGEVINQPMMMAARQLHDEARKWSSKGNDIIAAAKRMALLMAEMSRLVRGGSGTAAALIQCAKDIAKASDEVTRLAKEVAKQCTDKRIRTNLLQVCERIPTISTQLKILSTVKATMLGRTNISAEASEQATEMLVHNAQNLMQSVKETVREAEAASIKIRTDAGFTLRWVRKTPWYQ
With B2 the other: unbinding time (tUb) at 40 pN, peak of square-root histogram was 4 s and the other: average unbinding time at 40 pN was 27 s.

From publication PMC10354202
